Patent US20200079833A1 (AstraZeneca / MedImmune, published 2020)
Starred links: 1 amine or outer side, 2 acyl side, 3 side chain; linkers in the order of their positions; H or OH if unused. Non-standard residues stand in square brackets, D forms with d. Groups on a side chain read outwards from the residue. Primed or numbered codes have the meaning given here. No end group written: not given here. *: point of attachment. γGlu = O=C(O)[C@H](CCC(=O)[*:2])N[*:1]; Stearoyl = CCCCCCCCCCCCCCCCCC(=O)*; Palmitoyl = CCCCCCCCCCCCCCCC(=O)*; αMeF = C[C@](N)(Cc1ccccc1)C(=O)O; αMeK = C[C@](N)(CCCCN)C(=O)O; αMeS = C[C@](N)(CO)C(=O)O; PEG2′ = not defined here; Aib = CC(C)(N)C(=O)O; Ahx = NCCCCCC(=O)O

T1: glucose-dependent insulinotropic peptide (gastric inhibitory polypeptide) receptor (GIPR) (human, UniProt P48546 22-466)
T1 sequence (looked up): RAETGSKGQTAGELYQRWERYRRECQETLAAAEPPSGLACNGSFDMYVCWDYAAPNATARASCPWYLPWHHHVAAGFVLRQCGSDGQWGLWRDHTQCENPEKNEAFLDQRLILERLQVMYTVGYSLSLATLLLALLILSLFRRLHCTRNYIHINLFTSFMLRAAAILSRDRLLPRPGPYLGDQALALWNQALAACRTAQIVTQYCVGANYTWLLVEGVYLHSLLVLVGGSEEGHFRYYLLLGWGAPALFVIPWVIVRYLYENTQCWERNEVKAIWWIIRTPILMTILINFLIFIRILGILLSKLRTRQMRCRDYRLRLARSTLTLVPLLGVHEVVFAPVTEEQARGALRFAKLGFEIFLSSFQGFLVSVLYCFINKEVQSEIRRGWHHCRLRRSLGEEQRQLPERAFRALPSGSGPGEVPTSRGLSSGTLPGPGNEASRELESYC

B1: SEQ ID NO 78 (peptide)
peptide: H[Aib]EGS[αMeF]TSDV[αMeS]S[αMeF]LEGEAA[αMeK]EK([γGlu-Palmitoyl])IA[αMeF]VV[αMeK]GG-NH2
modifications: N-terminus assumed
SMILES: CCCCCCCCCCCCCCCC(=O)N[C@@H](CCC(=O)NCCCC[C@H](NC(=O)[C@H](CCC(=O)O)NC(=O)[C@](C)(CCCCN)NC(=O)[C@H](C)NC(=O)[C@H](C)NC(=O)[C@H](CCC(=O)O)NC(=O)CNC(=O)[C@H](CCC(=O)O)NC(=O)[C@H](CC(C)C)NC(=O)[C@](C)(Cc1ccccc1)NC(=O)[C@H](CO)NC(=O)[C@](C)(CO)NC(=O)[C@@H](NC(=O)[C@H](CC(=O)O)NC(=O)[C@H](CO)NC(=O)[C@@H](NC(=O)[C@](C)(Cc1ccccc1)NC(=O)[C@H](CO)NC(=O)CNC(=O)[C@H](CCC(=O)O)NC(=O)C(C)(C)NC(=O)[C@@H](N)Cc1c[nH]cn1)[C@@H](C)O)C(C)C)C(=O)N[C@H](C(=O)N[C@@H](C)C(=O)N[C@@](C)(Cc1ccccc1)C(=O)N[C@H](C(=O)N[C@H](C(=O)N[C@@](C)(CCCCN)C(=O)NCC(=O)NCC(N)=O)C(C)C)C(C)C)[C@@H](C)CC)C(=O)O
B2: SEQ ID NO 151 (peptide)
peptide: H[Aib]EGS[αMeF]TSDV[αMeS]S[αMeF]LEGEAAK([Ahx-Ahx-Ahx-Stearoyl])E[αMeF]IA[αMeF]VV[αMeK]GG-NH2
modifications: N-terminus assumed
SMILES: CCCCCCCCCCCCCCCCCC(=O)NCCCCCC(=O)NCCCCCC(=O)NCCCCCC(=O)NCCCC[C@H](NC(=O)[C@H](C)NC(=O)[C@H](C)NC(=O)[C@H](CCC(=O)O)NC(=O)CNC(=O)[C@H](CCC(=O)O)NC(=O)[C@H](CC(C)C)NC(=O)[C@](C)(Cc1ccccc1)NC(=O)[C@H](CO)NC(=O)[C@](C)(CO)NC(=O)[C@@H](NC(=O)[C@H](CC(=O)O)NC(=O)[C@H](CO)NC(=O)[C@@H](NC(=O)[C@](C)(Cc1ccccc1)NC(=O)[C@H](CO)NC(=O)CNC(=O)[C@H](CCC(=O)O)NC(=O)C(C)(C)NC(=O)[C@@H](N)Cc1c[nH]cn1)[C@@H](C)O)C(C)C)C(=O)N[C@@H](CCC(=O)O)C(=O)N[C@@](C)(Cc1ccccc1)C(=O)N[C@H](C(=O)N[C@@H](C)C(=O)N[C@@](C)(Cc1ccccc1)C(=O)N[C@H](C(=O)N[C@H](C(=O)N[C@@](C)(CCCCN)C(=O)NCC(=O)NCC(N)=O)C(C)C)C(C)C)[C@@H](C)CC
B3: SEQ ID NO 81 (peptide)
peptide: H[Aib]EGS[αMeF]TSDV[αMeS]S[αMeF]LEGEAK([γGlu-Palmitoyl])[αMeK]E[αMeF]IA[αMeF]VV[αMeK]GG-NH2
modifications: N-terminus assumed
SMILES: CCCCCCCCCCCCCCCC(=O)N[C@@H](CCC(=O)NCCCC[C@H](NC(=O)[C@H](C)NC(=O)[C@H](CCC(=O)O)NC(=O)CNC(=O)[C@H](CCC(=O)O)NC(=O)[C@H](CC(C)C)NC(=O)[C@](C)(Cc1ccccc1)NC(=O)[C@H](CO)NC(=O)[C@](C)(CO)NC(=O)[C@@H](NC(=O)[C@H](CC(=O)O)NC(=O)[C@H](CO)NC(=O)[C@@H](NC(=O)[C@](C)(Cc1ccccc1)NC(=O)[C@H](CO)NC(=O)CNC(=O)[C@H](CCC(=O)O)NC(=O)C(C)(C)NC(=O)[C@@H](N)Cc1c[nH]cn1)[C@@H](C)O)C(C)C)C(=O)N[C@@](C)(CCCCN)C(=O)N[C@@H](CCC(=O)O)C(=O)N[C@@](C)(Cc1ccccc1)C(=O)N[C@H](C(=O)N[C@@H](C)C(=O)N[C@@](C)(Cc1ccccc1)C(=O)N[C@H](C(=O)N[C@H](C(=O)N[C@@](C)(CCCCN)C(=O)NCC(=O)NCC(N)=O)C(C)C)C(C)C)[C@@H](C)CC)C(=O)O
B4: SEQ ID NO 80 (peptide)
peptide: H[Aib]EGS[αMeF]TSDV[αMeS]S[αMeF]LEGEAAK([γGlu-Palmitoyl])E[αMeF]IA[αMeF]VV[αMeK]GG-NH2
modifications: N-terminus assumed
SMILES: CCCCCCCCCCCCCCCC(=O)N[C@@H](CCC(=O)NCCCC[C@H](NC(=O)[C@H](C)NC(=O)[C@H](C)NC(=O)[C@H](CCC(=O)O)NC(=O)CNC(=O)[C@H](CCC(=O)O)NC(=O)[C@H](CC(C)C)NC(=O)[C@](C)(Cc1ccccc1)NC(=O)[C@H](CO)NC(=O)[C@](C)(CO)NC(=O)[C@@H](NC(=O)[C@H](CC(=O)O)NC(=O)[C@H](CO)NC(=O)[C@@H](NC(=O)[C@](C)(Cc1ccccc1)NC(=O)[C@H](CO)NC(=O)CNC(=O)[C@H](CCC(=O)O)NC(=O)C(C)(C)NC(=O)[C@@H](N)Cc1c[nH]cn1)[C@@H](C)O)C(C)C)C(=O)N[C@@H](CCC(=O)O)C(=O)N[C@@](C)(Cc1ccccc1)C(=O)N[C@H](C(=O)N[C@@H](C)C(=O)N[C@@](C)(Cc1ccccc1)C(=O)N[C@H](C(=O)N[C@H](C(=O)N[C@@](C)(CCCCN)C(=O)NCC(=O)NCC(N)=O)C(C)C)C(C)C)[C@@H](C)CC)C(=O)O
B5: SEQ ID NO 79 (peptide)
peptide: H[Aib]EGS[αMeF]TSDV[αMeS]S[αMeF]LEGEAA[αMeK]K([γGlu-Palmitoyl])[αMeF]IA[αMeF]VV[αMeK]GG-NH2
modifications: N-terminus assumed
SMILES: CCCCCCCCCCCCCCCC(=O)N[C@@H](CCC(=O)NCCCC[C@H](NC(=O)[C@](C)(CCCCN)NC(=O)[C@H](C)NC(=O)[C@H](C)NC(=O)[C@H](CCC(=O)O)NC(=O)CNC(=O)[C@H](CCC(=O)O)NC(=O)[C@H](CC(C)C)NC(=O)[C@](C)(Cc1ccccc1)NC(=O)[C@H](CO)NC(=O)[C@](C)(CO)NC(=O)[C@@H](NC(=O)[C@H](CC(=O)O)NC(=O)[C@H](CO)NC(=O)[C@@H](NC(=O)[C@](C)(Cc1ccccc1)NC(=O)[C@H](CO)NC(=O)CNC(=O)[C@H](CCC(=O)O)NC(=O)C(C)(C)NC(=O)[C@@H](N)Cc1c[nH]cn1)[C@@H](C)O)C(C)C)C(=O)N[C@@](C)(Cc1ccccc1)C(=O)N[C@H](C(=O)N[C@@H](C)C(=O)N[C@@](C)(Cc1ccccc1)C(=O)N[C@H](C(=O)N[C@H](C(=O)N[C@@](C)(CCCCN)C(=O)NCC(=O)NCC(N)=O)C(C)C)C(C)C)[C@@H](C)CC)C(=O)O
B6: SEQ ID NO 82 (peptide)
peptide: H[Aib]EGS[αMeF]TSDV[αMeS]S[αMeF]LEGEK([γGlu-Palmitoyl])A[αMeK]E[αMeF]IA[αMeF]VV[αMeK]GG-NH2
modifications: N-terminus assumed
SMILES: CCCCCCCCCCCCCCCC(=O)N[C@@H](CCC(=O)NCCCC[C@H](NC(=O)[C@H](CCC(=O)O)NC(=O)CNC(=O)[C@H](CCC(=O)O)NC(=O)[C@H](CC(C)C)NC(=O)[C@](C)(Cc1ccccc1)NC(=O)[C@H](CO)NC(=O)[C@](C)(CO)NC(=O)[C@@H](NC(=O)[C@H](CC(=O)O)NC(=O)[C@H](CO)NC(=O)[C@@H](NC(=O)[C@](C)(Cc1ccccc1)NC(=O)[C@H](CO)NC(=O)CNC(=O)[C@H](CCC(=O)O)NC(=O)C(C)(C)NC(=O)[C@@H](N)Cc1c[nH]cn1)[C@@H](C)O)C(C)C)C(=O)N[C@@H](C)C(=O)N[C@@](C)(CCCCN)C(=O)N[C@@H](CCC(=O)O)C(=O)N[C@@](C)(Cc1ccccc1)C(=O)N[C@H](C(=O)N[C@@H](C)C(=O)N[C@@](C)(Cc1ccccc1)C(=O)N[C@H](C(=O)N[C@H](C(=O)N[C@@](C)(CCCCN)C(=O)NCC(=O)NCC(N)=O)C(C)C)C(C)C)[C@@H](C)CC)C(=O)O

Target: GLP-1 receptor (GLP-1R) (human, UniProt P43220 24-463)
Assay: cell-based or functional assay

Row | cAMP Mean pM GLP-1R | cAMP Primary assay EC50 GLP-1R n1 | cAMP Primary assay EC50 GLP-1R n2 | Binder
1 | 14 pM | 0.018 nM | 0.0093 nM | B1
2 | 18.2 pM | 0.022 nM | 0.015 nM | B2
3 | 283 pM | 0.37 nM | 0.2 nM | B3
4 | 24 pM | 0.031 nM | 0.017 nM | B4
5 | 34.7 pM | 0.039 nM | 0.031 nM | H[Aib]EGS[αMeF]TSDV[αMeS]S[αMeF]LEGEAAK([PEG2′-Stearoyl])E[αMeF]IA[αMeF]VV[αMeK]GG-NH2 [SEQ ID NO 152]
6 | 3.1 pM | 0.0039 nM | 0.0023 nM | B5
7 | 2.5 pM | 0.003 nM | 0.002 nM | B6

Target: glucagon receptor (GCGR) (human, UniProt P47871 26-477)
Assay: cell-based or functional assay

Sequence of glucagon receptor (GCGR) (P47871 26-477): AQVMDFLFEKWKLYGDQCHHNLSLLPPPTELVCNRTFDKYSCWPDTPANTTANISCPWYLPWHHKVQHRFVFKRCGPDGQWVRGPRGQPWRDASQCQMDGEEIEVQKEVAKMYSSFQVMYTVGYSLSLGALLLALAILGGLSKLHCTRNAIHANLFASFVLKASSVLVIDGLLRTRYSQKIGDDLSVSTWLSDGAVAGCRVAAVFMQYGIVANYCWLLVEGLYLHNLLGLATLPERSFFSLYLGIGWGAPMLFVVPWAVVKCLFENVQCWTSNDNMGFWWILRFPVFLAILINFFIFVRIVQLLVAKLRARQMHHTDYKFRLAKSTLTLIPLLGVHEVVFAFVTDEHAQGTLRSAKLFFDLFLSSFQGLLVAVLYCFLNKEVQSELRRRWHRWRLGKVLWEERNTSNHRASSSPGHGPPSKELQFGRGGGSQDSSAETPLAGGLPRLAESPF

Row | cAMP Primary assay EC50 Gluc-R | cAMP Primary assay EC50 Gluc-R (2nd) | Binder
8 | 28 nM | 28 nM | B1
9 | 26 nM | 26 nM | B2
10 | 27 nM | 27 nM | B3
11 | 28 nM | 28 nM | B4
12 | 28 nM | 28 nM | H[Aib]EGS[αMeF]TSDV[αMeS]S[αMeF]LEGEAAK([PEG2′-Stearoyl])E[αMeF]IA[αMeF]VV[αMeK]GG-NH2 [SEQ ID NO 152]
13 | 28 nM | 28 nM | B5
14 | 27 nM | 27 nM | B6

Target: T1, glucose-dependent insulinotropic …
Assay: cell-based or functional assay

Row | cAMP Primary assay EC50 GIP-R | cAMP Primary assay EC50 GIP-R (2nd) | Binder
15 | 28 nM | 28 nM | B1
16 | 26 nM | 26 nM | B2
17 | 27 nM | 27 nM | B3
18 | 28 nM | 28 nM | B4
19 | 28 nM | 28 nM | H[Aib]EGS[αMeF]TSDV[αMeS]S[αMeF]LEGEAAK([PEG2′-Stearoyl])E[αMeF]IA[αMeF]VV[αMeK]GG-NH2 [SEQ ID NO 152]
20 | 28 nM | 28 nM | B5
21 | 27 nM | 27 nM | B6
